Source: the supplement of paper PMC9170038

Test system: MS2 coat protein
Assay: apparent KD of MS2 coat protein; designed switch direction (-1 OFF switch, 1 ON switch): -1; higher = weaker reporter binding
In short: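 An oligonucleotide input, 200 uM small-molecule ligand, or no input was present during titration of SNAP-549-labelled MS2 coat protein, which was doubled from 0.7 or 1.5 nM to 3 µM. Designed RNA switches had been transcribed on Illumina chips by stalled E. coli RNA polymerase. Apparent KD per design is the median over clusters of curves fitted to normalised cluster fluorescence.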

[1] = Eterna round: R95, input ligand: microRNA oligo, concentration not stated
[2] = Eterna round: R95, input ligand: FMN 200 uM
[3] = Eterna round: R95, input ligand: none
[4] = input ligand: microRNA oligo, concentration not stated

Row | Sequence | apparent KD of MS2 coat protein [1] [nM] | apparent KD of MS2 coat protein [2] [nM] | apparent KD of MS2 coat protein [3] [nM] | apparent KD of MS2 coat protein (input ligand: FMN 200 uM) [nM] | apparent KD of MS2 coat protein (input ligand: none) [nM] | apparent KD of MS2 coat protein [4] [nM]
1 | UUCAGACAUGAGGAUCACCCAUGUGAGGAUAUGAUGCGAUCGUCGAAAGACGAUAGCAUCAGAAGGCACGUAUG [Fiskers Ex 1 - 16] (puzzle: Exclusion 1) | 97.8 |  |  |  |  | 
2 | GCCCGUGCGGAGGAUAUUGAUAUCCCAGUCUAUCAAGAAGGCUGCACAUGAGGAUCACCCAUGUGACCUGUGCU [Retiqule] (puzzle: Exclusion 6) | 15.8 |  |  |  |  | 
3 | CCAUCGAGUGUGAGGAUAUGCUGGUCAAUAGAUCAGCAGAAGGCACAUGAGGAUCACCCAUGUGGAGACGGUGG [Mat - Exclusion 4 - JL Mod - D79] (puzzle: Brourd's mod of Exclusion 4) | 44.8 | 333 | 70.6 |  |  | 
4 | AUAAUGUAAGGAUAUCAGUCGACUAGCGAUAGCUAGUCGACUGAGAAGGUACAUGAGGAUCACCCAUGUGAUUA [E4/10-A4] (Eterna round: R97, puzzle: Exclusion 4) |  |  |  | 421 | 167 | 
5 | UUUUUAUAUGAAGGAUAUACUUAACAUGAGGAUCACCCAUGUGGUGUUGUGAGUGAGAGAGUUUAGUAGAAGGUCAAUUAUUUU [JMF's solution 5] (Eterna round: R96, puzzle: Exclusion NG 2) |  |  |  | 714 | 300 | 280
6 | AUUUAAACAUAGGAUAUCGAAUUUAUUAUUUAACGAGAAGGAUGAACAUGAGGAUCACCCAUGUGGUAUCAUGG [Mat - Exclusion 6 - JL Mod - D25] (puzzle: Exclusion 6) | 815 | 693 | 260 |  |  | 
7 | UCCUCACAUGAGGAUCACCCAUGUCAGGAUAUGUACCCGAUCAAGUCAGAGAUCGGAAGCAGAAGGGACUGCGG [Larebeti] (puzzle: Exclusion 1) | 70.7 | 26.5 | 59.2 |  |  | 
8 | AACCCGUGUGUCAGGAUAUUGAGUCAGACUGGCUACAAGAAGGGACAUGAGGAUCACCCAUGUACUUAGAGAAA [BmEX4 B.22] (Eterna round: R97, puzzle: Brourd's mod of Exclusion 4) |  |  |  | 37.8 | 17.9 | 
9 | GUGCAACAUGAGGAUCACCCAUGUCAGGAUAUGCGAAUUUCAUCAAAAGAUGAAAUUUGCAGAAGGGACAGCAC [Omei Ex1 A16] (Eterna round: R97, puzzle: Exclusion 1) |  |  |  | 32 | 24.4 | 
10 | GCAGCUAAUCGAGGAUAUCAGCACGAUUAGUGCUGAGAAGGCGACAUGAGGAUCACCCAUGUGAUCAAUUAAUAUUAAUGCUGC [ENG1/11-A1] (Eterna round: R96, puzzle: Exclusion NG 1) |  |  |  | 774 | 505 | 295
11 | CGUCCGGCUUCCCUUCAAAACAUGAGGAUCACCCAUGUUUUUGUUUUUGCGAGCUUUUUGCUUUUUGCUCGUCUUGU [Even Better Attempt] (puzzle: Sensor v3, turn-off variant 1) | 12.5 | 20.1 | 19.9 |  |  | 
12 | CACCGUAACAGAGGAUAUGAUACAUGAGGAUCACCCAUGUAAUAAAUGAGAAUUUCGAAUGUACCUCAGAAGGCUGAAACCGGC [Ostricism 81 - Jieux - Exclusion NG 2] (Eterna round: R96, puzzle: Exclusion NG 2) |  |  |  | 115 | 48 | 38.5
13 | UACGAAGAGUGAGGAUAUGUGCGACAAAGUUGCACAGAAGGCACAUGAGGAUCACCCAUGUAAGCUAGGUCGAAAGACCUAGCG [Omei Exc(NG)1 Av4] (Eterna round: R96, puzzle: Exclusion NG 1) |  |  |  | 130 | 44.7 | 21
14 | CUCGUGUAAGGAUAUGCGAGCCACGGAAAUAAAACGUGGAGGUAGAAGGUACAUGAGGAUCACCCAUGUAAAAC [Anonveat] (puzzle: Exclusion 4) | 24.3 |  |  |  |  | 
